Assay results taken from article PMC2745200 (Biochimie, 2009).

Target: the molecule itself
Assay: SEC

B1: human ω-amidase/Nit2 (nitrilase-like protein 2) (enzyme, UniProt Q9NQR4 1-276, looked up)
chain: MTSFRLALIQLQISSIKSDNVTRACSFIREAATQGAKIVSLPECFNSPYGAKYFPEYAEKIPGESTQKLSEVAKECSIYLIGGSIPEEDAGKLYNTCAVFGPDGTLLAKYRKIHLFDIDVPGKITFQESKTLSPGDSFSTFDTPYCRVGLGICYDMRFAELAQIYAQRGCQLLVYPGAFNLTTGPAHWELLQRSRAVDNQVYVATASPARDDKASYVAWGHSTVVNPWGEVLAKAGTEEAIVYSDIDLKKLAEIRQQIPVFRQKRSDLYAVEMKKP
  stoichiometry N: 2
